The text below walks through data of patent US20220112288A1 (published 2022).

First the molecules themselves.
B1: 75110_07J02A (antibody, V domains shown)
VH: EVQLVESGGGLVQPGGSLRLSCAASGFTFSSYWMSWVRQAPGKGLEWVANIKEDGSEKYYVDSVKGRFTISRDNAKNSLYLQMNSLRAEDTAVYYCARDGSYSGYGMDVWGQGTTVTVSS
VL: AIQMTQSPSSLSASVGDRVTITCRASQGIRNDLGWYQQKPGKAPKLLIYAASSLQSGVPSRFSGRGSGTDFALTISSLQPEDFATYYCLLDYNYPYTFGQGTRLEIK
notes: Tested as antibody purified from AlivaMab Mouse hybridoma supernatant (human variable domains, kappa; mouse Fc, captured on anti-mouse IgG Fc sensors); also called ADS75110 purified AMM Ab
B2: 75110_08A13A (antibody, V domains shown)
VH: EVQLVESGGGLVQPGGSLRLSCAASGFIFSSYWMSWVRQAPGKGLEWVANIKQDGSEKYYMDSVKGRFTISRDNAKNSLYLQMNSLRAEDTAVYYCARDNSYYYYGMDVWGQGTTVTVSS
VL: AIQMTQSPSSLSASVGDRVTITCRASQGIRDDLGWYQQKPGKAPKLLIFAASSLQSGVPSSFSGSGSGTDFTLTISSLQPEDFATYYCLHHYNYPYTFGQGTKLEIK
notes: as for B1
B3: 75110_10K21A (antibody, V domains shown)
VH: EVQLVESGGGLVQPGGSLRLSCAASGFTFSSYWMTWVRQAPGKGLEWVANIKQDGSEKYYVDSVKGRFTISRDNAKNSLYLQMNSLRAEDTAVYYCVRDRYDALDIWGQGTMVTVSS
VL: AIQMTQSPSSLSASVGDRVTITCRASQGIRNDLNWYQQKPGKAPKLLIYAASSLQSGVPSRFSGSGSGTDFTLTISSLQAEDFATYYCLKDYNYPYTFGQGTKLEIK
notes: as for B1
B4: 75110_10N21A (antibody, V domains shown)
VH: EVQLVESGGGLVQPGGSLRLSCAASGFTFSSYDMHWVRQVTGKGLEWVSTIGTAGDTYYPGSVKGRFTISRENAKNSLYLQMNSLRAGDTAVYYCARGGYYYYGMDVWGQGTTVTVSS
VL: EIVLTQSPGTLSLSPGERATLSCRASQSFISSYLAWYQQKPGQAPRLLIYGASSRATGIPDRFSGSGSGTDFTLTISRLDPEDFAVYYCQQSGNSPFTFGPGTKVDVK
notes: as for B1
B5: 75110_13C07A (antibody, V domains shown)
VH: EVQLVESGGVLVQPGGSLRLSCAASGFTFSNYDMHWVRQATGKGLEWVSTIGTAGDTYYPGSVKGRFTLSRENAKNSLYLQMHSLRAGDTAVYYCARGAYGYYGMDVWGQGTTVTVSS
VL: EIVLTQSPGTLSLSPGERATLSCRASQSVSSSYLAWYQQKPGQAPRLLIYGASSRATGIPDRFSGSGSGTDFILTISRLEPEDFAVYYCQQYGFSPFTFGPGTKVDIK
notes: as for B1
B6: 75110_08F20A (antibody, V domains shown)
VH: QVQLQESGPGLVKPSETLSLTCSVSGGSISTYYWSWIRQPAGKGLEWIGRICTTENTNYNPSLKSRVTMSIDSSKNQFSLKLSSVTAADTAVYYCARDLERLNYYGMDVWGQGATVTVSS
VL: DIQMTQSPSSLSASVGDRVTITCQASQDISKYLNWYQQKPGIAPKLLIYDASNLETGVPSRFSGSGSGTDFTFTISSLQPEDFATYYCQQYDSLPITFGQGTRLEIK
notes: as for B1
B7: 75110_08G08A (antibody, V domains shown)
VH: QVQLQESGPGLVKPSETLSLTCSVSGGSISTYYWSWIRQPAGKGLEWIGRICTTENTNYNPSLKSRVTMSIDSSKNQFSLKLSSVTAADTAVYYCARDLERLNYYGMDVWGQGATVTVSS
VL: DIQMTQSPSSLSASVGDRVTITCQASQDISNYLNWYQQKPGIAPKLLIYDASNLETGVPSRFSGSGSGTDFTFTISSLQPEDIATYYCQQYDSLPITFGQGTRLEIK
notes: as for B1
B8: 75110_11D03A (antibody, V domains shown)
VH: EVQLVESGGGLVQPGGSLRLSCAASGFTFSSYWMSWVRQAPGKGLEWVANINQDGNEKYYVDSVKGRFTISRDNAKNSLFLQMNSLRAEDTAVYYCAREGGQWLALDYWGQGALVTVSS
VL: DIQMTQSPSSVSASVGDRVTITCRASQGISSWLAWYQQKPGKAPKFLISGASSLQSGVPSRFSGSGSGTDFTLTISSLQPEDFATYYCQQANSFPWTFGQGTKVEIK
notes: as for B1
B9: 75110_09N20A (antibody, V domains shown)
VH: EVQLVESGGGLVQPGGSLRLSCAASGFTFSSYWMSWVRQAPGKGLEWVANINEDGSEKYYVDSVKGRFTISRDNAKNSLYLQMNSLRAEDTAVYYCVREGGQWLALDYWGQGTLVTVSS
VL: DIQMTQSPSSVSASVGDRVTITCRASQGISSWLAWYQQKPGKAPKLLIYAASSLQSGVPSSFSGSGSGTDFTLTINSLQPEDFATYYCQQANSFPWTFGQGTKVAIK
notes: as for B1
B10: 75110_12C19A (antibody, V domains shown)
VH: EVQLVESGGGLVQPGGSLRLSCAASGFTFSSYWMSWVRQAPGKGLEWVANIKEDGSDKYYVDSVKGRFTISRDNAKNSLYLQMNSLRAEDTAVHYCVREGGQWLALDYWGQGTLVTVSS
VL: DIQMTQSPSSVSGSVGDRVTITCRASQGISSWLAWYQQKPGKAPKLLIYGASSLQSGVPSRFSGSGSGTDFTLTISSLQPEDFVTYYCQQANSFPWTFGQGTKVEIK
notes: as for B1
B11: 75110_12H17A (antibody, V domains shown)
VH: EVQLVESGGGLVQPGGSLRLSCAASGFTFSDYWMSWVRQAPGKGLEWVANIKEDGNEKYYVDSVKGRFTISRDNAKNSLFLQMNSLRAEDTAVYYCAREGGQWLALDYWGQGALVTVSS
VL: DIQMTQSPSSVSASVGDRVTITCRASQGISSWLAWYQQKPGKAPKFLISGASSLQSGVPSRFTGSGSGTDFTLTISSLQPEDFATYYCQQANSFPWTFGQGTKVEIK
notes: as for B1
B12: 75110_07H07A (antibody, V domains shown)
VH: EVQVVESGGGLVQPGGSLRLSCAASGFTFSSYWMSWVRQAPGKGLEWVANIKEEGSEKYYVDSVKGRFTISRDNAKNSLYLQMNSLRAEDTAVYYCVREGGQWLALDYWGQGTLVTVSS
VL: DIQMTQSPSSVSGSVGDRVTITCRASQGISSWLAWYQQKPGKAPKLLIFGASSLQSGVPSRFSGSGSGTDFTLTISSLQPEDFATYYCQQANSFPWTFGQGTKVQIK
notes: as for B1
B13: 75110_12H19A (antibody, V domains shown)
VH: EVQLVESGGGLVQPGGSLRLSCAASGFTFSSYWMSWVRQAPGQGLEWVANINEDGNEKYHVDSVKGRLTISRDNAKNSLYLQMNSLRGVDTAVYFCAREGGQWLALDYWGQGALVTVSS
VL: DIQMTQSPSSVSASVGDRVSITCRASQGISSWLAWYQQKPGKAPKLLIYGASGLQSGVPSRFSGSGSGTDFTLTISSLQPEDFATYYCQQANSFPWTFGQGTKVEIK
notes: as for B1
B14: 75110_09G15A (antibody, V domains shown)
VH: EVQLVESGGGLVQPGGSLRLSCAASGFTFSDYWMSWVRQAPGKGLEWVANINQDGSEKYSVDSVKGRFTISRDNAKNSLYLQMNSLRAEDTAIFYCAREGGQWLALDYWGQGTLVTVSS
VL: DIQMTQSPSSVSASVGDRVTITCRASQGISSWLAWYQQKPGKAPKLLIYGASSLQSGVPSRFSGSGSGTDFTLTINSLQPEDFTTYYCQQANIFPWTFGQGTKVEIK
notes: as for B1
B15: 75110_12K21A (antibody, V domains shown)
VH: QVQLQQWGAGLLKPSETLSLTCAVSGGSFSGYYWSWIRQPPGKGLEWIGEINHSGSTNCNPSLKSRVTISVDTSNNQFSLKLSSVTAADTAVYYCARVLNYFDYWGQGTLVTVSS
VL: DIQMTQSPSSVSASVGDRVTITCRASPDIANWLAWYQQKPGKAPELLIYAASSLQSGVPSRFSGSGSGTDFTLTISSLQPEDFATYFCQQANSFPLTFGGGTKVESK
notes: as for B1
B16: 75110_13C13A (antibody, V domains shown)
VH: QVQLQQWGAGLLKPSETLSLTCAVSGGSFSGYYWSWIRQPPGKGLEWIGEINHSGSTNCNPSLKSRVTISVDTSKNQFSLKLSSVTAADTAMYYCARVLNFFDYWGQGTLVTVSS
VL: DIQMTQTPSSVSASVGDRVTITCRASPGISNWLAWYQQKPGKAPELLIYAASSLQSGVPSRFSGSGSGTDFTLTISSLQPEDFATYFCQQANSFPLTFGGGTKVESK
notes: as for B1
B17: 75110_07N04A (antibody, V domains shown)
VH: QVQLQESGPGLVKPSETLSLTCSVSGVSSTSFYWSWIRQPAGKGLDWIGRIYTSGSTNYNPSLKSRVTMSVDTSKNQFSLKLSSVTAADTAVYYCARDPGYSDAFAIWGQGTMVTVSS
VL: not shown
notes: as for B1

T1 sequence (P16003 26-390 limits assumed): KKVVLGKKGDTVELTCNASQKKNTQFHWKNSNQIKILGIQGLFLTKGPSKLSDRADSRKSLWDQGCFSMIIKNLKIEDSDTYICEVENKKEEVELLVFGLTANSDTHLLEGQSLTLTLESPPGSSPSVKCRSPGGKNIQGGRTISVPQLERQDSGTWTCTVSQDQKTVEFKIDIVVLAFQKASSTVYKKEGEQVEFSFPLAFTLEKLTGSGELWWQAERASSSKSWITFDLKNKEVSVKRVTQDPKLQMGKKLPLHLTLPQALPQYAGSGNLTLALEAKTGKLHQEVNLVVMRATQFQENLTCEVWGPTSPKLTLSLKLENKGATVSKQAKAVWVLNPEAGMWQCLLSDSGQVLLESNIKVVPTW

This assay has as its target T1, Rhesus macaque CD4-HIS (Acro Biosystems, Cat. CD4-C52H7) (rhesus macaque, UniProt P16003 26-390).
T1 construct: Bought reagent; also called Rhesus CD4; rhesus CD4-HIS; not shown: His tag
Nature of the assay: BLI (Octet Red384); Ab on anti-mouse Fc (AMC) sensor; rhesus CD4-HIS 100/50/25 nM; global 1:1 fit.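 Further: antibodies loaded at 10 µg/mL, an unrelated mouse-derived antibody served as internal reference, curves fit over association and dissociation phases.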 In general terms: Biolayer interferometry detects binding as a change in optical thickness at a sensor tip.
Molecule B1 showed a Kd of 18 nM, a Response of 0.14, a koff of 0.0028 s⁻¹ and a kon of 150000 M⁻¹ s⁻¹.

As for B2, binding was put at a Kd of 5.1 nM, the Response is 0.15, the off-rate (koff) is 0.00098 s⁻¹ and the kon was 190000 M⁻¹ s⁻¹.

The molecule B3 displayed a Kd of 2.1 nM, a Response of 0.23, a dissociation rate constant (koff) of 0.00033 s⁻¹ and a kon of 160000 M⁻¹ s⁻¹.

B4 registered a Kd of 8.2 nM, a Response of 0.07, a koff of 0.001 s⁻¹ and a kon of 130000 M⁻¹ s⁻¹.

The molecule B5 displayed a Kd of 3.9 nM, a Response of 0.05, a koff of 0.00085 s⁻¹ and a kon of 220000 M⁻¹ s⁻¹.

B6 yielded an equilibrium dissociation constant (Kd) of 11 nM, a Response of 0.22, a dissociation rate constant (koff) of 0.0026 s⁻¹ and a kon of 230000 M⁻¹ s⁻¹.

As to B7, the dissociation constant (Kd) was 19 nM, the Response was determined as 0.15, the off-rate (koff) is 0.0041 s⁻¹ and the kon worked out at 220000 M⁻¹ s⁻¹.

B8 returned a Kd of 3.5 nM, a Response of 0.11, a koff of 0.0018 s⁻¹ and an on-rate constant (kon) of 530000 M⁻¹ s⁻¹.

Molecule B9 yielded a Kd of 44 nM, a Response of 0.14, a dissociation rate constant (koff) of 0.004 s⁻¹ and an on-rate (kon) of 92000 M⁻¹ s⁻¹.

In the case of B10, the Kd came out at 16 nM, the Response came out at 0.1, the koff amounted to 0.0038 s⁻¹ and the kon is 240000 M⁻¹ s⁻¹.

B11: the dissociation constant Kd amounted to 22 nM, the Response came to 0.23, the dissociation rate constant (koff) is 0.0032 s⁻¹ and the kon worked out at 150000 M⁻¹ s⁻¹.

B12 showed a Kd of 32 nM, a Response of 0.15, a koff of 0.003 s⁻¹ and an on-rate (kon) of 94000 M⁻¹ s⁻¹.

On to B13, for which the Kd was 14 nM, the Response came to 0.28, the off-rate constant (koff) was determined as 0.0026 s⁻¹ and the kon was found to be 190000 M⁻¹ s⁻¹.

Consider B14, for which the affinity, expressed as Kd, was 36 nM; the Response turned out to be 0.27; the off-rate constant (koff) was found to be 0.003 s⁻¹; the kon was 84000 M⁻¹ s⁻¹.

The molecule B15 had an equilibrium dissociation constant (Kd) of 21 nM, a Response of 0.16, a koff of 0.0056 s⁻¹ and a kon of 270000 M⁻¹ s⁻¹.

On to B16, for which binding was put at a Kd of 8.3 nM, the Response is 0.09, the off-rate constant (koff) was 0.0046 s⁻¹ and the kon is 550000 M⁻¹ s⁻¹.

Regarding B17, the Kd is less than 0.001 nM, the Response came to 0.03, the koff is less than 1e-07 s⁻¹ and the kon was determined as 13000 M⁻¹ s⁻¹.

In general, Kd refers to the equilibrium constant for the complex coming apart. Low values mean a tighter complex, high ones a looser complex. By koff is commonly meant the rate constant with which the complex falls apart. Low values mean a long-lived complex, high ones a short-lived complex. The term kon denotes a measure of how fast the partners come together. Read a high kon as fast association.
